T1: CEACAM5 A3B3, human CEACAM5 A3-B3 domain (499-685) (human, UniProt P06731 499-685)
T1 construct: Followed by 6 amino acid His-Tag; also called hCEACAM5 A3-B3; human A3B3 domain
T1 sequence: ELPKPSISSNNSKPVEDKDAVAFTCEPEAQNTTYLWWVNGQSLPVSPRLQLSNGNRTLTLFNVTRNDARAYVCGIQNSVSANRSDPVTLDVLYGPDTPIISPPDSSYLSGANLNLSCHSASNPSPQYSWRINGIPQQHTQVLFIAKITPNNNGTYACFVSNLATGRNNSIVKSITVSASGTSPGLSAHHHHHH

T2: hCEACAM5 NA1B1, human CEACAM5 N-A1-B1 domain (35-320) (human, UniProt P06731 35-320)
T2 construct: Followed by 6 amino acid His-Tag; also called hCEACAM5 N-ter-A1-B1
T2 sequence: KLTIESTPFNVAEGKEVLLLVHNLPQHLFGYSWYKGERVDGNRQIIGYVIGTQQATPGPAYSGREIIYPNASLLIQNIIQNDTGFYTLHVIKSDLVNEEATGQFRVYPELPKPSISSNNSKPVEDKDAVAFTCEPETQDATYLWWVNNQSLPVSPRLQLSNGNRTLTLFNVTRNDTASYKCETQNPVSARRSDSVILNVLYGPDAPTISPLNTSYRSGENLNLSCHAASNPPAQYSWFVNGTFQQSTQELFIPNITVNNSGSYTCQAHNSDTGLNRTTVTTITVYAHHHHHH

T3: CEACAM5 A2B2, human CEACAM5 A2-B2 domain (321-498) (human, UniProt P06731 321-498)
T3 construct: Followed by 6 amino acid His-Tag; also called hCEACAM5-A2-B2
T3 sequence: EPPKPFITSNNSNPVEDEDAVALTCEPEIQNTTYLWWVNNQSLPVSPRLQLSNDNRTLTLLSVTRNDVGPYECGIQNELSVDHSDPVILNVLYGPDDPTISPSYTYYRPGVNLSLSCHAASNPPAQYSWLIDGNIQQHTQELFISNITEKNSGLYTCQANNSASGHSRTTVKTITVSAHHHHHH

T4: hCEACAM6, human CEACAM6 ECD (35-327) (human, UniProt P40199 35-327)
T4 construct: With 24 amino acid extension containing a His-Tag
T4 sequence: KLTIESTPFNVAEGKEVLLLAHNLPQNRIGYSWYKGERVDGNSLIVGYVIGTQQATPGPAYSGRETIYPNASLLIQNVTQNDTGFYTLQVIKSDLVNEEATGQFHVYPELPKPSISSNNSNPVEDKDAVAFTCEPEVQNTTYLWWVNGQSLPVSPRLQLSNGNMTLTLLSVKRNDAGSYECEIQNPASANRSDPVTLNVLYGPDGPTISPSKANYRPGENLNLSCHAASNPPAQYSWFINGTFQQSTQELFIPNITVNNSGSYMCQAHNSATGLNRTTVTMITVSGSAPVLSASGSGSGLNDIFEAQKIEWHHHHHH

T5: hCEACAM1, human CEACAM1 ECD (35-428) (human, UniProt P13688 35-428)
T5 construct: With 24 amino acid extension containing a His-Tag; also called hEACAM1
T5 sequence: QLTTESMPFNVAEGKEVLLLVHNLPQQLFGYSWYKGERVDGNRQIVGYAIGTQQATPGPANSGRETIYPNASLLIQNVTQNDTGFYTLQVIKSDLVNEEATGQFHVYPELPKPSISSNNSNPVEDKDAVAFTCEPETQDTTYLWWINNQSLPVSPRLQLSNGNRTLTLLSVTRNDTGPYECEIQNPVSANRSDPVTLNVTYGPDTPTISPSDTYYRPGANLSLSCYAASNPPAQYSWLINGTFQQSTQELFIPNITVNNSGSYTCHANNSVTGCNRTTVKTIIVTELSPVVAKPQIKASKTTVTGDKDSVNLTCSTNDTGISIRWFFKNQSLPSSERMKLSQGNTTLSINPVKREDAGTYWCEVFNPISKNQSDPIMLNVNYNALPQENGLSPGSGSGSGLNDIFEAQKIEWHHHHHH

T6: hCEACAM5, human CEACAM5 ECD (35-685) (human, UniProt P06731 35-685)
T6 construct: produced in HEK293; also called human CEACAM5 protein; human CEACAM5 extracellular domain
T6 sequence: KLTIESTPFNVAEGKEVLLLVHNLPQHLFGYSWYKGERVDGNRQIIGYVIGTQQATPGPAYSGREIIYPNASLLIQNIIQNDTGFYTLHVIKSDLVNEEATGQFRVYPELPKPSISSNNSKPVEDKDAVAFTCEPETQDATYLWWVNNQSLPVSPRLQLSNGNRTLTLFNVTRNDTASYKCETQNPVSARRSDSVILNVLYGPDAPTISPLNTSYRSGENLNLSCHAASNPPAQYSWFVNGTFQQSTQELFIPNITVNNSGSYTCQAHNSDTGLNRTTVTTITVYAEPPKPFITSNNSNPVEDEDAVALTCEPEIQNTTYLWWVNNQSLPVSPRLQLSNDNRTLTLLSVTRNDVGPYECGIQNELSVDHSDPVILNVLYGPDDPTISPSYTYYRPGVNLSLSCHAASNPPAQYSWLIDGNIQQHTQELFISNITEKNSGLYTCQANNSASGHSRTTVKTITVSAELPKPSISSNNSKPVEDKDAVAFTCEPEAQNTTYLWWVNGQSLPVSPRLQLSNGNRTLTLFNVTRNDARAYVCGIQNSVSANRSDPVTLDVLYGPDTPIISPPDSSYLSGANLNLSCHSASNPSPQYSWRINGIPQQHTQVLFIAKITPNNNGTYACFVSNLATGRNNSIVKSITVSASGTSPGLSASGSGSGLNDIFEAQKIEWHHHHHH

T7: hCEACAM8, human CEACAM8 ECD (35-332) (human, UniProt P31997 35-332)
T7 construct: With 24 amino acid extension containing a His-Tag
T7 sequence: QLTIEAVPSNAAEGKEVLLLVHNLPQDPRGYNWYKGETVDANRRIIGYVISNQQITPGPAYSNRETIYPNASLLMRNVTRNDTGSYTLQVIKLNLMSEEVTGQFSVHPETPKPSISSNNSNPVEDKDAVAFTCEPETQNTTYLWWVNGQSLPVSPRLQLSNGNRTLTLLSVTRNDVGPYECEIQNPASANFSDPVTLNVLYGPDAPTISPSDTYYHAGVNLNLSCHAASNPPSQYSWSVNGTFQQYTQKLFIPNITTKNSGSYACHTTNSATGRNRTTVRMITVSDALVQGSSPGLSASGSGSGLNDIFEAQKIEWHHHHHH


Tests used:
[1] = molecular target: T1, CEACAM5 A3B3, human CEACAM5 A3-B3 …; test: ELISA on CEACAM5 domains
[2] = molecular target: T2, hCEACAM5 NA1B1, human CEACAM5 N-A1-B1 …; test: ELISA on CEACAM5 domains
[3] = molecular target: T3, CEACAM5 A2B2, human CEACAM5 A2-B2 …; test: ELISA on CEACAM5 domains
[4] = molecular target: T4, hCEACAM6, human CEACAM6 ECD (35-327); test: ELISA
[5] = molecular target: T5, hCEACAM1, human CEACAM1 ECD (35-428); test: ELISA
[6] = molecular target: T6, hCEACAM5, human CEACAM5 ECD (35-685); test: ELISA
[7] = molecular target: T7, hCEACAM8, human CEACAM8 ECD (35-332); test: ELISA

Row | Binder | percentage of binding compared to full binding with human CEACAM5 [1] | percentage of binding compared to full binding with human CEACAM5 [2] | percentage of binding compared to full binding with human CEACAM5 [3] | percentage of binding compared to full binding with human CEACAM5 [4] | percentage of binding compared to full binding with human CEACAM5 [5] | percentage of binding compared to full binding with human CEACAM5 [6] | percentage of binding compared to full binding with human CEACAM5 [7]
1 | huMAb2-3 (antibody, human IgG1, kappa, V domains shown, Humanized MAb2, human IgG1 / Ckappa; also called MAb2_VL1cVH1a-IgG1) VH: EVQLQESGPGLVKPGGSLSLSCAASGFVFSSYDMSWVRQTPERGLEWVAYISSGGGITYAPSTVKGRFTVSRDNAKNTLYLQMNSLTSEDTAVYYCAAHYFGSSGPFAYWGQGTLVTVSS VL: DIQMTQSPASLSASVGDRVTITCRASENIFSYLAWYQQKPGKSPKLLVYNTRTLAEGVPSRFSGSGSGTDFSLTISSLQPEDFATYYCQHHYGTPFTFGSGTKLEIKR | 100% | 0.4% | 0.4% | 0.3% | 0.3% | 100% | 0.6%
2 | huMAb2-1 (antibody, V domains shown, Humanized MAb2 (VL1 + VH1) fused to human IgG1 and human Ckappa constant domains; also called MAb2_VL1VH1-IgG1; MAb2VL1VH1-IgG1) VH: EVQLQESGPGLVKPGGSLSLSCAASGFVFSSYDMSWVRQTPERRLEWVAYISSGGGITYFPSTVKGRFTVSRDNAKNTLYLQMNSLTSEDTAIYYCAAHYFGSSGPFAYWGQGTLVTVSA VL: DIQMTQSPASLSASVGDTVTITCRASENIFSYLAWYQQKPGKSPKLLVYNTKTLAEGVPSRFSGSGSGTQFSLTISSLQPEDFGSYYCQHHYGTPFTFGSGTKLEIK | 100% | 0.4% | 0.3% | 0.2% | 0.3% | 100% | 0.9%
3 | huMAb2-4 (antibody, human IgG1, kappa, V domains shown, Humanized MAb2, human IgG1 / Ckappa; also called MAb2_VL1d VH1-IgG1; MAb2_VL1dVH1-IgG1) VH: EVQLQESGPGLVKPGGSLSLSCAASGFVFSSYDMSWVRQTPERRLEWVAYISSGGGITYFPSTVKGRFTVSRDNAKNTLYLQMNSLTSEDTAIYYCAAHYFGSSGPFAYWGQGTLVTVSA VL: DIQMTQSPASLSASVGDTVTITCRASENIFSYLAWYQQKPGKSPKLLVYNTRTLAEGVPSRFSGSGSGTQFSLTISSLQPEDFGSYYCQHHYGTPFTFGSGTKLEIKR | 100% | 0.3% | 0.3% | 0.3% | 0.3% | 100% | 1.4%
4 | chMAb2 (antibody, human IgG1, kappa, V domains shown, Chimeric, human IgG1, Ck isotype; also called MAb2-IgG1; chimeric MAb2) VH: EVQLQESGGVLVKPGGSLKLSCAASGFVFSSYDMSWVRQTPEKRLEWVAYISSGGGITYFPDTVQGRFTVSRDNAKNTLYLQMNSLKSEDTAIYYCAAHYFGSSGPFAYWGQGTLVTVSA VL: DIQMTQSPASLSASVGETVTITCRASENIFSYLAWYQQKQGKSPQLLVYNTKTLAEGVPSRFSGSGSGTQFSLKINSLQPEDFGSYYCQHHYGTPFTFGSGTKLEIKR | 100% | 0.5% | 0.3% | 0.3% | 0.3% | 100% | 0.6%
5 | huMAb2-2 (antibody, V domains shown, Humanized MAb2 (VL1a + VH1a) fused to human IgG1 and human Ckappa constant domains; also called MAb2_VL1aVH1a-IgG1; MA2_VL1aVH1a-IgG1) VH: EVQLQESGPGLVKPGGSLSLSCAASGFVFSSYDMSWVRQTPERGLEWVAYISSGGGITYAPSTVKGRFTVSRDNAKNTLYLQMNSLTSEDTAVYYCAAHYFGSSGPFAYWGQGTLVTVSS VL: DIQMTQSPASLSASVGDRVTITCRASENIFSYLAWYQQKPGKSPKLLVYNTKTLAEGVPSRFSGSGSGTDFSLTISSLQPEDFATYYCQHHYGTPFTFGSGTKLEIK | 100% | 0.4% | 0.3% | 0.3% | 0.3% | 100% | 0.5%

Reference: US20220340682A1 (Sanofi, published 2022)
